In US7648964B2, “Use of lacritin in promoting ocular cell survival” (University of Virginia Patent Foundation, priority 2004, dated 2010):
Entries after “also recorded” stand apart in the source; their conditions may differ.

T1: syndecan-1 (Homo sapiens, UniProt P18827)
T1 construct: expressed in transfected cells; host or cells: HEK293 (syndecan-1); E. coli ER2566 (lacritin-intein)
T1 sequence (P18827 23-310): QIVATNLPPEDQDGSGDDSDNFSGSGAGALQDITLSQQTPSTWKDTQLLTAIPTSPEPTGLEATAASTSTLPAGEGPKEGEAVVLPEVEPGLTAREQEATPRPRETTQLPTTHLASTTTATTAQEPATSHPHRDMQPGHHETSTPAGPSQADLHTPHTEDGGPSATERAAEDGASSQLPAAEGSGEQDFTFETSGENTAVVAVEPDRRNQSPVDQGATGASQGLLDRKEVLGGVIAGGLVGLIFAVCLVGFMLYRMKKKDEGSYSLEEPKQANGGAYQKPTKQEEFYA


Assays:
PKCα = test: Phospho-PKCα blot of HSG cell lysates; assay type: cell-based, human; conditions: for concentration of optimal dephosphorylation: increasing molar levels
Description: (§1) For phosphotyrosine blotting and mitogenesis assays, cells in serum-containing media were seeded overnight in 24-well plates at a density of 0.5×10^5 cells/mm^2 corresponding to 20-30% confluency after cell attachment, incubated in serum-free media without supplements for 24 h (phosphotyrosine) or washed with serum-free media without supplements three times (mitogenesis) and incubated with lacritin (1-1000 nM), or positive controls EGF (1.6 nM) and 10% fetal bovine serum, or negative controls bovine serum albumin or no additive in serum-free media without supplements for the indicated times (phosphotyrosine) or 30 h (mitogenesis). For phosphotyrosine assays, cells were extracted in 1% NP40 containing sodium vanadate (2 mg/ml), DTT (5 mg/ml), protease inhibitors, 50 mM HEPES, 100 mM NaCl, and 2 mM EDTA; then separated by 10% SDS PAGE, transferred and blotted. The following antibodies (Cell Signaling Technology, Beverly Mass.) were tested: antiphosphotyrosine antibody (P-Tyr-100), anti-phospho-PKC αβII, anti-PKCα, anti-phospho-PKCδ, anti-phospho-PKC (pan), anti-p44/42 MAPK, anti-phospho-Raf, anti-phospho-SAPK/JNK, anti-phospho-p38 Map kinase, anti-phospho-Raf, anti-phospho-Akt, anti-phospho-CaMKII, anti-phospho-MARCKS, or anti-tubulin (loading control). After washing, bound antibodies were detected with peroxidase-labeled secondary antibody and ECL. With the exception of at least nine proteins in the P-Tyr-100 blot (FIG. 1), none of the effectors tested above appeared to be phospho-activated during lacritin signaling (not shown). For mitogenesis (Hussaini et al., '00), [^3H]-thymidine (2 mCi/ml) was added for the next 6 h. Incorporation was stopped with ice-cold phosphate buffered saline and followed by addition of cold and then room temperature trichloracetic acid (10%) for 10 min each, washing of cells with phosphate buffered saline, solubilization with 1 N sodium hydroxide, neutralization with 1 N hydrochloric acid, addition of scintillation fluid and then quantitation in a scintillation counter. To deplete PKCα in HSG cells, a pool of four PKCα-specific siRNAs (100 nM) were transfected via LipofectAMINE 2000 in Opti-MEMI Reduced Serum Medium (Invitrogen, Grand Island N.Y.) without serum and antibiotics according to manufacturer's instructions. Each of the four siRNAs was also individually transfected. In negative controls, cells were transfected with a pool of four lamin-specific siRNAs (Upstate LLC, Charlottesville Va.; Dharmacon Inc, Lafayette Colo.). Seventy-two hours post-transfection, mitogenesis was assessed by co-addition of 10 […] lacritin and [^3H]-thymidine (2 mCi/ml) (Amersham, Piscataway N.J.) for 24 hrs. PKCα depletion was confirmed by Western blotting.
We imaged PKCα in cells 15 min after treatment (FIG. 8). Nonmitogenic construct/fragment C-25 (10 nM) had no effect, leaving PKCa diffusely distributed throughout the cytoplasm. […] The phosphorylation state of PKCα influences its translocation site. Hyperphosphorylated PKCα becomes associated with the plasma membrane whereas hypophosphorylated or dephosphorylated PKCα is known to translocate to the perinuclear Golgi region. To determine if the latter is true and if so over what time course, we treated cells with lacritin, N-24 and C-25, and then blotted cell lysates for phospho-PKC ? (FIG. 8B). 10 nM lacritin promotes PKC ? dephosphorylation within 1 min of addition. This form is sustained for at least 15 min, but by 30 min has returned to baseline phosphorylation. Dephosphorylation triggered by increasing molar levels of lacritin or N-24 mirrored the proliferation response with optimal dephosphorylation at 10 nM. Non-mitogenic C-25 had no effect, whereas positive control 4β-phorbol 12-myristate 13-acetate-promoted hyperphosphorylation.

[1] = test system: human corneal epithelial (HCE) cells; test: 3H-thymidine uptake mitogenesis assay; assay type: cell-based
Description: For phosphotyrosine blotting and mitogenesis assays, cells in serum-containing media were seeded overnight in 24-well plates at a density of 0.5×10^5 cells/mm^2 corresponding to 20-30% confluency after cell attachment, incubated in serum-free media without supplements for 24 h (phosphotyrosine) or washed with serum-free media without supplements three times (mitogenesis) and incubated with lacritin (1-1000 nM), or positive controls EGF (1.6 nM) and 10% fetal bovine serum, or negative controls bovine serum albumin or no additive in serum-free media without supplements for the indicated times (phosphotyrosine) or 30 h (mitogenesis). […] After washing, bound antibodies were detected with peroxidase-labeled secondary antibody and ECL. […] Incorporation was stopped with ice-cold phosphate buffered saline and followed by addition of cold and then room temperature trichloracetic acid (10%) for 10 min each, washing of cells with phosphate buffered saline, solubilization with 1 N sodium hydroxide, neutralization with 1 N hydrochloric acid, addition of scintillation fluid and then quantitation in a scintillation counter. […] Seventy-two hours post-transfection, mitogenesis was assessed by co-addition of 10 […] lacritin and [^3H]-thymidine (2 mCi/ml) (Amersham, Piscataway N.J.) for 24 hrs. […]

syndecan-1 = target: T1, syndecan-1; test: Competitive binding assay of lacritin-syndecan-1 binding; conditions: competitive binding assays
Description: Biotinylated cell surface proteins were applied to lacritin affinity columns. After washing extensively in physiological salt-containing buffer, bound protein was eluted with 1 M NaCl, and identified with avidin-peroxidase using an ECL blot method. In controls, columns lacking lacritin were used. […] 293T cells stably transfected with human syndecan-2 or −4 were kindly provided by Dr. Atsushi Utani (Chiba University). A series of lacritin C-terminal and N-terminal deletion mutants were generated. Pull down binding assays involved incubation of intein-tagged lacritin or intein deletion mutants with lysates of untransfected or transfected cells followed by precipitation and SDS PAGE. Immunolocalization of syndecan-1 in human lacrimal glands was performed using anti-human syndecan-1 antibody (CD138).
The first of approximately four bands repeatedly eluted from lacritin affinity column was determined by sequencing to be syndecan-1. In pull-down assays, lacritin bound mammalian syndecan-1, but not syndecan-2 or 4. The binding appeared to be independent of heparan sulfate side chains, in keeping with lack of lacritin binding to heparin (previously known). Deletion of lacritin's C-terminal 25 but not N-terminal 5, 10, or 24 amino acids eliminated binding. […] Syndecan-1 was detected in ‘near apical’ and basolateral plasma membranes in human lacrimal gland.

[2] = test system: human salivary ductal (HSG) cells; test: 3H-thymidine uptake mitogenesis assay; assay type: cell-based
Description: as §1

Molecule | effect on lacritin-dependent PKCα dephosphorylation (PKCα; pertussis toxin 100 ng/ml, Go 6976, U73122, U73343 1 μM) | mitogenesis [1] | time dephosphorylated form is sustained (PKCα; 10 nM lacritin) | time of return to baseline phosphorylation (PKCα; 10 nM lacritin) [min] | time to PKCα dephosphorylation (PKCα; 10 nM lacritin) [min] | concentration of optimal dephosphorylation (PKCα) [nM] | inhibition of binding (syndecan-1) | proliferation in nominally calcium-free medium [2] | time to detectable 3H-thymidine uptake ([2]; not shown) | level of proliferation at optimal dose ([2]; vs 10% FBS positive control) | mitogenic activity of deletion constructs ([2]; 10 nM, compared to intact lacritin)
Cn1c2ccccc2c2c3c(c4c5ccccc5n(CCC#N)c4c21)CNC3=O [Go 6976] | inhibited | – | – | – | – | – | – | – | – | – | –
lacritin: recombinant human lacritin from E. coli; mature 119 residue fragment (SEQ ID NO:10) of native lacritin SEQ ID NO:4 (protein, listed as Homo sapiens) EDASSDSTGADPAQEAGTSKPNEEISGPAEPASPPETTTTAQETSAAAVQGTAKVTSSRQELNPLKSIVEKSILLTEQALAKAGKGMHGGVPGGKQFIENGSEFAQKLLKKFSLLKPWA | – | mitogenic; also recorded: promote cell proliferation | at least 15 min | ≤ 30 | ≤ 1 | 10 | inhibited binding | proliferated in a bell-shaped lacritin dose-dependent manner | Within two hours | matching the FBS positive control | –
N-24: deletion mutant comprising a deletion of the 24 amino terminal amino acids of lacritin (protein, homo sapiens, deletion mutant comprising a deletion of the 24 amino terminal amino acids of lacritin) DSTGADPAQEAGTSKPNEEISGPAEPASPPETTTTAQETSAAAVQGTAKVTSSRQELNPLKSIVEKSILLTEQALAKAGKGMHGGVPGGKQFIENGSEFAQKLLKKFSLLKPWA | – | promote cell proliferation | – | – | – | 10 | inhibited binding | – | – | – | active
